Results reported in paper PMC13237374.

Biological target: human medin (human) (UniProt Q08431)
Assay: thioflavin T aggregation kinetics

critical concentration of aggregation: 14 nM | critical monomer concentration for aggregation: 10 to 25 nM | elongation rate constant k+ (monomer addition to fibril ends): 5e+07 M⁻¹ s⁻¹
Substance: human medin (from UniProt Q08431 268-317) (peptide)
